What was measured:
Test in all cases: Kinase Profiling Assay
Type in all cases: biochemical
Settings in all cases: 100 μM peptide
ZAP-70(h) = target: T1, ZAP-70(h) (Homo sapiens, UniProt P43403)
T1 sequence (P43403 1-619): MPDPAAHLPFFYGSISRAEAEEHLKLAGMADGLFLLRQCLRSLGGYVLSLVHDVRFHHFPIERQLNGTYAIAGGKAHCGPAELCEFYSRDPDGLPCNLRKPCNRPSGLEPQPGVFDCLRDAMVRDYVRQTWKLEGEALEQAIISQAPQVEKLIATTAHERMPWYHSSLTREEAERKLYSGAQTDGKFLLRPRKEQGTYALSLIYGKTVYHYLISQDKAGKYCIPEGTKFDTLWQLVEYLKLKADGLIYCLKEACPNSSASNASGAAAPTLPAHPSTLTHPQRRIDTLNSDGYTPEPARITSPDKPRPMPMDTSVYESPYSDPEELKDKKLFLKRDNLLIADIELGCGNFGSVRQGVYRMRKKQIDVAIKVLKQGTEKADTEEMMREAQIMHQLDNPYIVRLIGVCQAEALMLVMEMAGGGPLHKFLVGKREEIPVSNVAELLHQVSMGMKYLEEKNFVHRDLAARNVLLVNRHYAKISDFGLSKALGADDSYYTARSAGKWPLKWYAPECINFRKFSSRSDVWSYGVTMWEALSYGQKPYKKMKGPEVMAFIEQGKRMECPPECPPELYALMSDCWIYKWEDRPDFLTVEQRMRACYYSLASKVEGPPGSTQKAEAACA
Summary of the method: (§1)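 Selectivity profiling: MK2-targeting peptides tested on 266 human kinases. All activity determinations done in duplicate.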

Fer(h) = Fer(h) (Homo sapiens, UniProt P16591)
Summary of the method: as §1

Fyn(h) = Fyn(h) (Homo sapiens, UniProt P06241)
Summary of the method: as §1

PKCζ(h) = target: T2, PKCζ(h) (Homo sapiens, UniProt Q05513)
T2 construct: purchased Millipore (IC50 Profiler Express service)
T2 sequence (Q05513 1-592): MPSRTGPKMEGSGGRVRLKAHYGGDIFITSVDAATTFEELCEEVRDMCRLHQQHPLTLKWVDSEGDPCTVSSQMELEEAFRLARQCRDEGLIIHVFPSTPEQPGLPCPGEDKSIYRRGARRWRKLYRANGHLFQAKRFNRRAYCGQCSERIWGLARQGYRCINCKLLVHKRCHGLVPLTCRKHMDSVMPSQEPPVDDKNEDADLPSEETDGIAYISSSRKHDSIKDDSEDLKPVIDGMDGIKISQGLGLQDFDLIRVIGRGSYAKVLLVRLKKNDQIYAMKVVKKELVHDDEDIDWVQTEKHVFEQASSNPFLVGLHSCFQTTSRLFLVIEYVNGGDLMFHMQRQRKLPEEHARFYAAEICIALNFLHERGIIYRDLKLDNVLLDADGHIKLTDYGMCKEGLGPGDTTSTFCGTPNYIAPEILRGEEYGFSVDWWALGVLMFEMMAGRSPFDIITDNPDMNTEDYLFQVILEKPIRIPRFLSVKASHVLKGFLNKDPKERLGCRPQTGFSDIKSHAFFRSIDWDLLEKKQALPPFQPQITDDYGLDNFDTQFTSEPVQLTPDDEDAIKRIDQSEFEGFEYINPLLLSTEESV
Summary of the method: as §1

Fms(h) = Fms(h) (Homo sapiens, UniProt P07333)
Summary of the method: as §1

WNK3(h) = WNK3(h) (Homo sapiens, UniProt Q9BYP7)
Summary of the method: as §1

IKKβ(h) = target: T3, IKKβ(h) (Homo sapiens, UniProt O14920)
T3 construct: purchased Millipore
T3 sequence (O14920 1-756): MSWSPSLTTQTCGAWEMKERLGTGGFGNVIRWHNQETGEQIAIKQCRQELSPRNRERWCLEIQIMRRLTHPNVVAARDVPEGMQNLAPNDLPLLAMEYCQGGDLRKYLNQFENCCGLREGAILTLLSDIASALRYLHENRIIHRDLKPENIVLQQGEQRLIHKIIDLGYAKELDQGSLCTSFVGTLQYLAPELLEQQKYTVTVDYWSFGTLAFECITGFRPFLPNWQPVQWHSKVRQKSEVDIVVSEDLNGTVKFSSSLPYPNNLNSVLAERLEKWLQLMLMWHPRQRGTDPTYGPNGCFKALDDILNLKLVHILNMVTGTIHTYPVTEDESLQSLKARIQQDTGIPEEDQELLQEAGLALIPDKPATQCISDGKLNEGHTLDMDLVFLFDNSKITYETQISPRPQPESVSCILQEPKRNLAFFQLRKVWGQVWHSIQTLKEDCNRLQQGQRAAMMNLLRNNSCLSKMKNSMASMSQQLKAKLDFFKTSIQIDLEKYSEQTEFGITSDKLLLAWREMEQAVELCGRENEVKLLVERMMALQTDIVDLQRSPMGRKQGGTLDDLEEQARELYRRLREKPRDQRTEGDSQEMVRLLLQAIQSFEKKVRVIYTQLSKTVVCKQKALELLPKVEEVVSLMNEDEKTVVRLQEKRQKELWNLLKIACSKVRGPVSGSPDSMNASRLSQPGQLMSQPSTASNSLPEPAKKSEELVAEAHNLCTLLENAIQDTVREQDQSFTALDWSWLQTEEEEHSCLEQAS
Summary of the method: as §1

DRAK1(h) = target: T4, DRAK1(h) (Homo sapiens, UniProt Q9UEE5)
T4 sequence (Q9UEE5 1-414): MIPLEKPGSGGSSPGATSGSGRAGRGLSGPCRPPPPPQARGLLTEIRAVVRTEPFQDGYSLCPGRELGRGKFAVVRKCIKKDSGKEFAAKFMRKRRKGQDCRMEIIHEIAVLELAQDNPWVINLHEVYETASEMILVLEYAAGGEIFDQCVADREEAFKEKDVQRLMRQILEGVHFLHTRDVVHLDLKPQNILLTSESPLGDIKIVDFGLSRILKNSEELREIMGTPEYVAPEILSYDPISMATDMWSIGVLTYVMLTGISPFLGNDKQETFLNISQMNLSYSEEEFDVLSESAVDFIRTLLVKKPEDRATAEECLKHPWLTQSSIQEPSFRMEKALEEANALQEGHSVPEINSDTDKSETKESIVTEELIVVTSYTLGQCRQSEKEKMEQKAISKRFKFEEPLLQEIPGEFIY
Summary of the method: as §1

PDGFRβ(h) = PDGFRβ(h) (Homo sapiens, UniProt P09619)
Summary of the method: as §1

DAPK2(h) = DAPK2(h) (Homo sapiens, UniProt Q9UIK4)
Summary of the method: as §1

Sequence of WNK3(h) (Q9BYP7 whole entry): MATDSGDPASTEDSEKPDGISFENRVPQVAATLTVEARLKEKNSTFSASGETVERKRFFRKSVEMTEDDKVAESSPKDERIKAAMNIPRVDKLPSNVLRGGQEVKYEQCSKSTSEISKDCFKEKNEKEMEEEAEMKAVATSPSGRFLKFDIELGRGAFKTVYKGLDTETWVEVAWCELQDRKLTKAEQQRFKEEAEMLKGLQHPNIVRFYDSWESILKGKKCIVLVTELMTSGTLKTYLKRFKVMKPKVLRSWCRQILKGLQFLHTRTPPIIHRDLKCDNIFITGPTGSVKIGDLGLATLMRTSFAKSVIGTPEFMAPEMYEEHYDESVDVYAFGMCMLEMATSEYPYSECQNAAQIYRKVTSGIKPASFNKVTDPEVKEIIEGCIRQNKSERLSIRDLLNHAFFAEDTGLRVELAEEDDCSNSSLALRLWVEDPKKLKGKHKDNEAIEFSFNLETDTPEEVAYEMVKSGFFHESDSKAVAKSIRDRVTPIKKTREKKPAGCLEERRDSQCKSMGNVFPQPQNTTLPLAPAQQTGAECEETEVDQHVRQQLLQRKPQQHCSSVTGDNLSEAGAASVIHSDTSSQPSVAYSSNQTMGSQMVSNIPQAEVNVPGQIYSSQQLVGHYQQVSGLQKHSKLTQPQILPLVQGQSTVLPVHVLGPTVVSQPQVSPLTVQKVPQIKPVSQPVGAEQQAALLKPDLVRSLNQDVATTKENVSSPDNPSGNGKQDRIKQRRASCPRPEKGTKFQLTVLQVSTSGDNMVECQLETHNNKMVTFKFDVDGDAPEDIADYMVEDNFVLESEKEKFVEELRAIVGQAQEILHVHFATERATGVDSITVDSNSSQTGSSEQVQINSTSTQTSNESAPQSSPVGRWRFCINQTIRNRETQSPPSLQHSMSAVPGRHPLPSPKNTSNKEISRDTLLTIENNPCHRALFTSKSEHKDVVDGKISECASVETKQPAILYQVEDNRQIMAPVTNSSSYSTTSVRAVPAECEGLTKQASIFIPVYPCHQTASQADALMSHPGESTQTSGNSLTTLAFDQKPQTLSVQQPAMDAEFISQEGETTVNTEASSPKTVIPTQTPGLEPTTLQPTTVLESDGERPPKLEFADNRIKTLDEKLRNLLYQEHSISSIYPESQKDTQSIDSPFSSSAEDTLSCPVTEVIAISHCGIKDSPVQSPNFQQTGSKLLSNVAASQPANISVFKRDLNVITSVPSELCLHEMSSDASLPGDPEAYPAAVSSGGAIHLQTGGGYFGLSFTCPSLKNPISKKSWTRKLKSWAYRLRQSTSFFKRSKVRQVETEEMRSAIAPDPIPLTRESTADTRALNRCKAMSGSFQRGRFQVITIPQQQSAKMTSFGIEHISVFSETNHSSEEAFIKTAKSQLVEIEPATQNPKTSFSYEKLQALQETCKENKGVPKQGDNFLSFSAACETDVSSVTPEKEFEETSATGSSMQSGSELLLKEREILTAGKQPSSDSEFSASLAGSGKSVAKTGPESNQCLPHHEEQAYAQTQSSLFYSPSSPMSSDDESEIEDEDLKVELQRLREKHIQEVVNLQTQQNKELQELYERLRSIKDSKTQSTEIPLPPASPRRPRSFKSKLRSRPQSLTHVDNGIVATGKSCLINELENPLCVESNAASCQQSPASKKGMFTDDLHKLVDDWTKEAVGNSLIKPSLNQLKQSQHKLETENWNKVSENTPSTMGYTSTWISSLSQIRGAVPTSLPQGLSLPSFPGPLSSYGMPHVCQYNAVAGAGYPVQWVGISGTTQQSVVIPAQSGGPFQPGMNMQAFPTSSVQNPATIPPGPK
Sequence of PDGFRβ(h) (P09619 33-1106): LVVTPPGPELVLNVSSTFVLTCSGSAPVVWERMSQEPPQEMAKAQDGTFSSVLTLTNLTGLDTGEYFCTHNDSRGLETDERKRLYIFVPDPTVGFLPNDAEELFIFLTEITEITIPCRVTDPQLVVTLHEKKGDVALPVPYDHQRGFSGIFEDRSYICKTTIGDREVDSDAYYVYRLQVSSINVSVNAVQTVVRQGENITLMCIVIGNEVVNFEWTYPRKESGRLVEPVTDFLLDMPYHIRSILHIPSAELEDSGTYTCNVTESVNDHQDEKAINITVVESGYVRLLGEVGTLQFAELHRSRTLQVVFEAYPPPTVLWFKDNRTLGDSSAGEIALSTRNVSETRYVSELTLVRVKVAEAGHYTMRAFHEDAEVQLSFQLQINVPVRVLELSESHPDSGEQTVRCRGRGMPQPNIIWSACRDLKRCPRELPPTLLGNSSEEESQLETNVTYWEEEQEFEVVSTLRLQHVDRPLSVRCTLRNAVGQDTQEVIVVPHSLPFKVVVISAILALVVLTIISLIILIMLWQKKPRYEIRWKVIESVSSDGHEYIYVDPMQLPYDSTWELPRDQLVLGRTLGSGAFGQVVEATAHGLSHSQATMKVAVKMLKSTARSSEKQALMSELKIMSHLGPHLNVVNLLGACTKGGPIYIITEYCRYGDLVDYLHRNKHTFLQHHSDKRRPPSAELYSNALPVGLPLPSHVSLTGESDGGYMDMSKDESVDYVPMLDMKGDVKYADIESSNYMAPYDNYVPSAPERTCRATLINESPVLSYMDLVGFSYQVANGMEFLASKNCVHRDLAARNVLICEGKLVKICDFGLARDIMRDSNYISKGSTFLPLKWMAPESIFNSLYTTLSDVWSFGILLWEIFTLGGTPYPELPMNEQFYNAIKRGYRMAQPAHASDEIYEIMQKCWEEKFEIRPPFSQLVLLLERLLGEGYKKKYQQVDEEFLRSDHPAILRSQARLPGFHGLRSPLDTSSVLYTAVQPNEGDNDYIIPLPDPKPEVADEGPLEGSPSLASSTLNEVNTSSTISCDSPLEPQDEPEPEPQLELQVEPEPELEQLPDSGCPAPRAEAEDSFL
Sequence of Fyn(h) (P06241 whole entry): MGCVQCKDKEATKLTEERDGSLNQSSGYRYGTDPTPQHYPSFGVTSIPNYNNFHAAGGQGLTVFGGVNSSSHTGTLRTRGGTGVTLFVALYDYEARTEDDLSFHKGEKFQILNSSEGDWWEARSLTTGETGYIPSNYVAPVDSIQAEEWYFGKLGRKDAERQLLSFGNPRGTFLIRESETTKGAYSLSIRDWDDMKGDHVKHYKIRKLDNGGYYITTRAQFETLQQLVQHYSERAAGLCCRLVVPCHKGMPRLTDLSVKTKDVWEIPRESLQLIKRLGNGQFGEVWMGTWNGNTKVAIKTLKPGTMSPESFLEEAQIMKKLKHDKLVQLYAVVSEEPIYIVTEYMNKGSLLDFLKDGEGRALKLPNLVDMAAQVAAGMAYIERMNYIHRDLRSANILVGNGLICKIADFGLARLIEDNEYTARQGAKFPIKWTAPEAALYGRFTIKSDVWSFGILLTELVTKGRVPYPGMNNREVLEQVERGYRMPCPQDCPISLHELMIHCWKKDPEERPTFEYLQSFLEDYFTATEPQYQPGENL
Sequence of DAPK2(h) (Q9UIK4 whole entry): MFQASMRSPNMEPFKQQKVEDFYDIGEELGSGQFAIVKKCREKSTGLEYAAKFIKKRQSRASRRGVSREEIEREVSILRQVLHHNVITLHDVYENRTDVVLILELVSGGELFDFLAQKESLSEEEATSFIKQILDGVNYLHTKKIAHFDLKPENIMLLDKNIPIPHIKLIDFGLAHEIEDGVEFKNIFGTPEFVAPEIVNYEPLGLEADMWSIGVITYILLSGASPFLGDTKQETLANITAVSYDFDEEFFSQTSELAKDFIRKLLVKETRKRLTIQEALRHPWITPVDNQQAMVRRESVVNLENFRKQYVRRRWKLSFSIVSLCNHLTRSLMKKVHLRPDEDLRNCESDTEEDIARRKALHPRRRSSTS
Sequence of Fer(h) (P16591 whole entry): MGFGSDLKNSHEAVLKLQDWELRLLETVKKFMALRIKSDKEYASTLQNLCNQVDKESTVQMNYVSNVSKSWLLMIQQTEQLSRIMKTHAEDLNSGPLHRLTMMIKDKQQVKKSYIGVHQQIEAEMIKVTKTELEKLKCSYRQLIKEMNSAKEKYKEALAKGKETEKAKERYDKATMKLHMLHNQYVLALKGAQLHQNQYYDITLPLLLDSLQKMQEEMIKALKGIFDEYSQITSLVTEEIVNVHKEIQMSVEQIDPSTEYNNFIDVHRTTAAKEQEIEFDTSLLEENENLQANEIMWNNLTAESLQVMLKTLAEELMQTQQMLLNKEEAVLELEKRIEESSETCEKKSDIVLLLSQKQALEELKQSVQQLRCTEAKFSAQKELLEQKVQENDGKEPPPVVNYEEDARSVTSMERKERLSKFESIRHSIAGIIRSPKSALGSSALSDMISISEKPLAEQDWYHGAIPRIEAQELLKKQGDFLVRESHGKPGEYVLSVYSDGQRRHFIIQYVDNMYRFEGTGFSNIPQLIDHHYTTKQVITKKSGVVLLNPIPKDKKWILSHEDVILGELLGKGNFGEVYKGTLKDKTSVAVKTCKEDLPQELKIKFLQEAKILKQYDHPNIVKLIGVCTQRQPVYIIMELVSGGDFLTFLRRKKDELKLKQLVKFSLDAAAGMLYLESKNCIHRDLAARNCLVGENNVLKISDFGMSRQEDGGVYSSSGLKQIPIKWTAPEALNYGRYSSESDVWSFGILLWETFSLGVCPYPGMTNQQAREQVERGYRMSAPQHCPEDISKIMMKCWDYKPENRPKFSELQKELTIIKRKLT

Row | Sequence | ZAP-70(h) % activity (ZAP-70(h)) [%] | Fer(h) % activity (Fer(h)) [%] | Fyn(h) % activity (Fyn(h)) [%] | PKCζ(h) % activity (PKCζ(h)) [%] | Fms(h) % activity (Fms(h)) [%] | WNK3(h) % activity (WNK3(h)) [%] | IKKβ(h) % activity (IKKβ(h)) [%] | DRAK1(h) % activity (DRAK1(h)) [%] | PDGFRβ(h) % activity (PDGFRβ(h)) [%] | DAPK2(h) % activity (DAPK2(h)) [%]
1 | FAKLAARLYRKALARQLGVAA [MMI-0300] | 75 | 130 | 74 | 81 | 45 | 77 | 84 | 14 | 81 | 32
2 | HRRIKAWLKKIKALARQLGVAA (Mammalian) [MMI-0500] | 1 | 196 | 83 | 7 | 14 | 9 | 71 | 8 | 40 | 3
3 | KAFAKLAARLYRKALARQLGVAA [MMI-0400] | 33 | 108 | 54 | 75 | 37 | 74 | 84 | 14 | 53 | 16
4 | YARAAARQARAKALNRQLGVA (Mammalian) [MMI-0200] | 58 | 101 | 75 | 98 | 92 | 97 | – | 34 | 137 | 92
